The series deals with FLAG (F)-tagged hsp90α (wild type), P07900.

B1: p300 protein (upstate) (protein)
chain: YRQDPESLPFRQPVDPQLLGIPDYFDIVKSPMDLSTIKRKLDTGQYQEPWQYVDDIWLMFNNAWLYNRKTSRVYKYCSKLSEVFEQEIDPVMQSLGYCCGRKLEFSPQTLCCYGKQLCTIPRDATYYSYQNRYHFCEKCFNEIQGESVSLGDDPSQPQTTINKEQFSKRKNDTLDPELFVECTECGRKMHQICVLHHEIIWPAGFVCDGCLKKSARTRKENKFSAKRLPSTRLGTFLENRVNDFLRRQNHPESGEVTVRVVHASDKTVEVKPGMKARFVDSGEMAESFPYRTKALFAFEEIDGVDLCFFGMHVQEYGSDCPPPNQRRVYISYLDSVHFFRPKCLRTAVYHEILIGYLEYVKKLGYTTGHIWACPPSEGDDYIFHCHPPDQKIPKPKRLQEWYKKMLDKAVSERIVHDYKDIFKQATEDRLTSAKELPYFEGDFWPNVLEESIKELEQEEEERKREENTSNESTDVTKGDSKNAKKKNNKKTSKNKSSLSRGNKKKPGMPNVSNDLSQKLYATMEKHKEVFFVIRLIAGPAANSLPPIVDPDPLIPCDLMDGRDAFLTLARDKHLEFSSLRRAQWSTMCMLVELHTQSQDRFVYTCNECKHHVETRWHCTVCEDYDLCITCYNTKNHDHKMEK
B1: the “in vitro acetylation of hsp90α, Western analysis with anti-AcK antibody” value is “Co-incubation with p300 was discovered to dose-dependently stimulate the acetylation of hsp90α”.

B2: PCAF (protein)
chain: MSEAGGAGPGGCGAGAGAGAGPGALPPQPAALPPAPPQGSPCAAAAGGSGACGPATAVAAAGTAEGPGGGGSARIAVKKAQLRSAPRAKKLEKLGVYSACKAEESCKCNGWKNPNPSPTPPRADLQQIIVSLTESCRSCSHALAAHVSHLENVSEEEMNRLLGIVLDVEYLFTCVHKEEDADTKQVYFYLFKLLRKSILQRGKPVVEGSLEKKPPFEKPSIEQGVNNFVQYKFSHLPAKERQTIVELAKMFLNRINYWHLEAPSQRRLRSPNDDISGYKENYTRWLCYCNVPQFCDSLPRYETTQVFGRTLLRSVFTVMRRQLLEQARQEKDKLPLEKRTLILTHFPKFLSMLEEEVYSQNSPIWDQDFLSASSRTSQLGIQTVINPPPVAGTISYNSTSSSLEQPNAGSSSPACKASSGLEANPGEKRKMTDSHVLEEAKKPRVMGDIPMELINEVMSTITDPAAMLGPETNFLSAHSARDEAARLEERRGVIEFHVVGNSLNQKPNKKILMWLVGLQNVFSHQLPRMPKEYITRLVFDPKHKTLALIKDGRVIGGICFRMFPSQGFTEIVFCAVTSNEQVKGYGTHLMNHLKEYHIKHDILNFLTYADEYAIGYFKKQGFSKEIKIPKTKYVGYIKDYEGATLMGCELNPRIPYTEFSVIIKKQKEIIKKLIERKQAQIRKVYPGLSCFKDGVRQIPIESIPGIRETGWKPSGKEKSKEPRDPDQLYSTLKSILQQVKSHQSAWPFMEPVKRTEAPGYYEVIRFPMDLKTMSERLKNRYYVSKKLFMADLQRVFTNCKEYNPPESEYYKCANILEKFFFSKIKEAGLIDK
As to B2, the “in vitro acetylation of hsp90α, Western analysis with anti-AcK antibody” value is on record as “This was not seen with PCAF”.

The record behind these values is patent publication US20100111943.
